According to patent publication US20120195879A1:
No end group written: not given here.

Experiments:
DNP(31)-BSA (bovine) = DNP(31)-BSA (bovine) (UniProt P02769); assay: SPR (BIAcore 2000), antibody captured on anti-human IgG Fc surface, DNP-BSA injected; apparent constants
DNP(3)-BSA (bovine) = assay: as above
human Kv1.1 (human) = human Kv1.1 (human) (UniProt Q09470); assay: cell-based or functional assay
human Kv1.3 (human) = human Kv1.3 (human) (UniProt P22001); assay: cell-based or functional assay
Sequence of human Kv1.3 (human) (P22001 whole entry): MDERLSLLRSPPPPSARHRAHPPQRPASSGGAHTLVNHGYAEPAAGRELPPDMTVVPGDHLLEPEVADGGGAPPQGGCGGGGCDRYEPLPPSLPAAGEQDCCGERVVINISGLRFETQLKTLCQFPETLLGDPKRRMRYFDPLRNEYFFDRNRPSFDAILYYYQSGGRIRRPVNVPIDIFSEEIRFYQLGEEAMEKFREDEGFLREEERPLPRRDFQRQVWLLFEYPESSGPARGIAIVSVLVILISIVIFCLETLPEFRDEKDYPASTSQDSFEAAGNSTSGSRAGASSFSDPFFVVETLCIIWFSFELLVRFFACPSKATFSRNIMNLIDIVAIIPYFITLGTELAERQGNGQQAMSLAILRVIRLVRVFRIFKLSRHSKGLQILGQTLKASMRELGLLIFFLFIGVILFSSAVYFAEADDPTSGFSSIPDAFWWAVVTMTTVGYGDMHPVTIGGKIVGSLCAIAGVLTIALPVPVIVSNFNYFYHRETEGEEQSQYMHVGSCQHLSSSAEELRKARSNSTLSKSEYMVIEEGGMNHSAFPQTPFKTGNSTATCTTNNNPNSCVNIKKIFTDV

Sequence of DNP(3)-BSA (bovine) (P02769 25-607 limits assumed, form in doubt): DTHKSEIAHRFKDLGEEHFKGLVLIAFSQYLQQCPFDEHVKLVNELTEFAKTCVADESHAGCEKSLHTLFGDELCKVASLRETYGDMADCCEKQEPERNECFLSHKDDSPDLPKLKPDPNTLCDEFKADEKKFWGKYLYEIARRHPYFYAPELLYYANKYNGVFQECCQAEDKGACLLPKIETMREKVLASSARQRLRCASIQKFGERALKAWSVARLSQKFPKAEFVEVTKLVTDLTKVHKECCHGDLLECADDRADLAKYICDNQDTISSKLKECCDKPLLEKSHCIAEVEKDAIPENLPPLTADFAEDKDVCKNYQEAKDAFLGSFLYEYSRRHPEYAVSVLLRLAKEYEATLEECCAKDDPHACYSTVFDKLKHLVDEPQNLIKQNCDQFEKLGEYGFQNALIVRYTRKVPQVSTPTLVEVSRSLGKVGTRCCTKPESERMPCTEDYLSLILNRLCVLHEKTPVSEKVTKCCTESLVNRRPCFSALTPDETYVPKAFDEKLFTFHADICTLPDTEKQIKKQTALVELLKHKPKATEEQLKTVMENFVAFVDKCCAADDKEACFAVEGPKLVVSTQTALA
Sequence of DNP(31)-BSA (bovine) (P02769 25-607 limits assumed, form in doubt): as above
Sequence of human Kv1.1 (human) (Q09470 whole entry): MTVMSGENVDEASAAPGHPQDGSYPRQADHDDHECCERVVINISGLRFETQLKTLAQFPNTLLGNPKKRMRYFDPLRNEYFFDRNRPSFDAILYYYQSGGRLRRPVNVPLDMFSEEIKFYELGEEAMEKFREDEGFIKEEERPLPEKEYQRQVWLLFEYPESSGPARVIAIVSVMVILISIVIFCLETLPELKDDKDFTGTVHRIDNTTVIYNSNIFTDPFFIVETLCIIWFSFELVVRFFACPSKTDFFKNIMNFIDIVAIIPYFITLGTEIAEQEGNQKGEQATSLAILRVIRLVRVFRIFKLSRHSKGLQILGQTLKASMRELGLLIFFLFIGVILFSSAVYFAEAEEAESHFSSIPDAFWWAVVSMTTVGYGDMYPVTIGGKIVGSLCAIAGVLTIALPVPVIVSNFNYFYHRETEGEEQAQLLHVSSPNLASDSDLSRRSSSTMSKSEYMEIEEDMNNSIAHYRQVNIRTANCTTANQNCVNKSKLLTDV

B1: aDNP 3B1 antibody (hybridoma) (antibody, human IgG2, kappa, V domains shown)
VH: QVQLQESGPGLVKPSETLSLTCTVSGGSISSYYWSWIRQPPGKGLEWIGYIYYSGNTNSNPSLKSRVTISVDTSKNQFSLKLSSVTAADTAVYYCARTYYDSSGYYYRAFDIWGQGTMVTVSS
VL: DIQMTQSPSSLSASEGDRVTITCRASQGIRNDLGWYQQKPGKAPKRLIYAASSLQSGVPLRFSGSGSGTEFTLTISSLQPEDFATYYCLQYNSYPWTFGQGTKVEIKR
- Kd (DNP(31)-BSA (bovine)): 0.2 nM
- koff (DNP(31)-BSA (bovine)): 5.8e-05 s⁻¹
- kon (DNP(31)-BSA (bovine)): 370000 M⁻¹ s⁻¹
- Kd (DNP(3)-BSA (bovine)): 3 nM
- koff (DNP(3)-BSA (bovine)): 0.00036 s⁻¹
- kon (DNP(3)-BSA (bovine)): 140000 M⁻¹ s⁻¹

B2: aDNP 3B1 antibody (recombinant, IgG2) (antibody, V domains shown)
VH: B1 VH
VL: B1 VL
- Kd (DNP(31)-BSA (bovine)): 0.7 nM
- koff (DNP(31)-BSA (bovine)): 0.00031 s⁻¹
- kon (DNP(31)-BSA (bovine)): 420000 M⁻¹ s⁻¹

Binder: Fc-GGGGSGGGGSRSCIDTIPKSRCTAFQCKHSMKYRLSFCRKTCGTC (Fc fusion, ends and bridges not checked; also: homodimer via Fc) [Bivalent Fc-L10-ShK[1-35] homodimer]
- Kv1.1 (PX) IC50 (human Kv1.1 (human)): 0.067 nM
- Kv1.1/Kv1.3 Selectivity Ratio by PX (human Kv1.3 (human)): 4.47
- Kv1.3 (PX) IC50 (human Kv1.3 (human)): 0.015 nM
- Potency Relative to ShK (WB, IL2) (human Kv1.3 (human)): 5.76

Binder: Fc-GGGGSGGGGSSCIDTIPKSRCTAFQCKHSMKYRLSFCRKTCGTC (Fc fusion, ends and bridges not checked; also: homodimer via Fc) [Bivalent Fc-L10-ShK[2-35] homodimer]
- Kv1.1 (PX) IC50 (human Kv1.1 (human)): 0.411 nM
- Kv1.1/Kv1.3 Selectivity Ratio by PX (human Kv1.3 (human)): 3.54
- Kv1.3 (PX) IC50 (human Kv1.3 (human)): 0.116 nM
- Potency Relative to ShK (WB, IL2) (human Kv1.3 (human)): 8.73

B3: aDNP 3A1 antibody (hybridoma) (antibody, human IgG2, kappa, V domains shown)
VH: QVQLQESGPGLVKPSETLSLTCTVSGGSISHYYWSWIRQPPGKGLGWIGYIYYSGSTNYNPSLKSRVTISVDTSKNQFSLKLTSVTAADTAVYYCARARGDGYNYPDAFDIWGQGTMVTVSS
VL: DIQMTQSPSSVSASVGDRVTITCRASQGISNWLAWYQRKPGKAPKLLIYAASSLQSGVPSRFSGSGSGTDFTLTISSLQPEDFAAYYCQQASSFPWTFGQGTRVEIKR
- Kd (DNP(31)-BSA (bovine)): 9 nM
- koff (DNP(31)-BSA (bovine)): 0.00031 s⁻¹
- kon (DNP(31)-BSA (bovine)): 34000 M⁻¹ s⁻¹
- Kd (DNP(3)-BSA (bovine)): 526 nM
- koff (DNP(3)-BSA (bovine)): 0.00065 s⁻¹
- kon (DNP(3)-BSA (bovine)): 1200 M⁻¹ s⁻¹
